Test results taken from patent US20200339680A1.

Columns and labels:
human TMEM106B (human) [1] = biological target: human TMEM106B (human) (UniProt Q9NUM4); experiment: FACS A549 10 ug/ml
human TMEM106B (human) [2] = biological target: human TMEM106B (human) (UniProt Q9NUM4); experiment: FACS HEK+huTMEM 0.1 ug/ml (2nd column so headed)
human TMEM106B (human) [3] = biological target: human TMEM106B (human) (UniProt Q9NUM4); experiment: FACS A549
human TMEM106B (human) [4] = biological target: human TMEM106B (human) (UniProt Q9NUM4); experiment: FACS, transfected HEK293
mouse TMEM106B (mouse) [5] = biological target: mouse TMEM106B (mouse) (UniProt Q80X71); experiment: FACS, transfected HEK293
human TMEM106B (human) [6] = biological target: human TMEM106B (human) (UniProt Q9NUM4); experiment: FACS HeLa
human TMEM106B (human) [7] = biological target: human TMEM106B (human) (UniProt Q9NUM4); experiment: FACS A549 1 ug/ml
human TMEM106B (human) [8] = biological target: human TMEM106B (human) (UniProt Q9NUM4); experiment: FACS, supernatant, hu-transfected HEK293
human TMEM106B (human) [9] = biological target: human TMEM106B (human) (UniProt Q9NUM4); experiment: FACS HEK+huTMEM 0.1 ug/ml
human TMEM106B (human) [10] = biological target: human TMEM106B (human) (UniProt Q9NUM4); experiment: FACS HEK+huTMEM 1.0 ug/ml
human TMEM106B (human) [11] = biological target: human TMEM106B (human) (UniProt Q9NUM4); experiment: FACS HEK+huTMEM 10 ug/ml
mouse TMEM106B (mouse) [12] = biological target: mouse TMEM106B (mouse) (UniProt Q80X71); experiment: FACS Neuro2a
human TMEM106B (human) [13] = biological target: human TMEM106B (human) (UniProt Q9NUM4); experiment: FACS U251

- MFI (human TMEM106B (human) [1]): 443 MFI
- MFI (human TMEM106B (human) [2]): 282 MFI
- MFI (human TMEM106B (human) [3]): 916 MFI
- fold over parental HEK293 (human TMEM106B (human) [4]): 1.13 fold
- fold over parental HEK293 (mouse TMEM106B (mouse) [5]): 1.97 fold
- MFI (human TMEM106B (human) [6]): 323 MFI
- MFI (human TMEM106B (human) [7]): 373 MFI
- fold over negative controls (human TMEM106B (human) [8]): > 2 fold
- MFI (human TMEM106B (human) [9]): 304 MFI
- MFI (human TMEM106B (human) [10]): 415 MFI
- MFI (human TMEM106B (human) [11]): 846 MFI
- MFI (mouse TMEM106B (mouse) [12]): 325 MFI
- MFI (human TMEM106B (human) [13]): 349 MFI
B1: TM-4 (antibody, V domains shown)
VH: EVQVQQSGPVLVKPGASVKMSCKASGYTFTDYYMNWVKQSHGKNLEWIGVINPYNGGTSYHQKFKGKATLTVDKSSSTAYMELNSLTSEDSAVYYCARAATVVAGFDYWGQGTTLTVSS
VL: QAVVTQESALTTSPGETVTLTCRSSTGAVTTSNYANWVQEKPDHLFTGLIGGTNNRAPGVPARFSGSLIGDKAALTITGAQTEDEAIYFCVLWYSNHLVFGGGTKLTVL
